B1: mAb #57 (antibody, V domains shown)
VH: QVQLVESGGGVVQSGRSLRLSCAASGFTFRSYAMHWVRQAPGKGLEWVADLSLDGSHKYADSVRGRFTISSDSSKNTVYLQMNSLRTEDTAIYYCARAAGIMVAGTFLTEFYFDYWGQGTLVTVSS
VL: QSVLTQPPSVSGAPGQRVTISCTGSSSNIGAGYDVHWYQQLPGTAPKLLIYGNIKRPSGVPDRFSGSKSGTSASLAITGLQTEDEADYYCQSYDSSLSAYYVFGTGTRVTVL
B2: mAb #46 (antibody, V domains shown)
VH: QVQLQESGPGLVKPSETLSLTCTVSGGSINSYYWSWIRQSPGKGLEWIGYVFYSGITKYNPSLQSRVTISLDMGKNQFSLKLTSVNAADAAVYYCARNFPSYTPDWFFDLWGRGTLVTVSS
VL: EIVLTQSPGTLSLSPGERATLSCRASQSVSSDNLAWYQQKPGQPPRLLIYGASHRATGIPDRFSGSGSGTDFTLTISRLEPEDFAVYHCQQYGSSPLTFGGGTKVEIK
B3: mAb #49 (antibody, V domains shown)
VH: DVQLVESGGGLVQPGGSVRLSCSASRFTFSNYAMYWVRQAPGKGLEYVSSISSDGGSTYYAESVKGRFTISRDNSKNTLYLQMRSLRAEDAAVYYCVTDVLRLPYSTGWSPGDFIYWGQGTLVTVSS
VL: DIQMTQSPSILYASVGDRVTITCRASQSVSSWLAWYQQKPGKVPKLLIYQASTLENGVPSRFSGSGSGTEFILTISSLQPDDFATYYCQHYNVLWTFGQGTKVEIK

How the values were obtained:
[1] = biological target: VP7 of rotavirus strain 116E (G9P[11]) (human rotavirus), Q99706; test: cell-based or functional assay
[2] = biological target: VP4 of rotavirus strain 116E (G9P[11]) (human rotavirus), Q99706; test: cell-based or functional assay
VP4 of rotavirus strain 116E (G9P[11]) (human rotavirus), Q99706, sequence (Q99706 22-377): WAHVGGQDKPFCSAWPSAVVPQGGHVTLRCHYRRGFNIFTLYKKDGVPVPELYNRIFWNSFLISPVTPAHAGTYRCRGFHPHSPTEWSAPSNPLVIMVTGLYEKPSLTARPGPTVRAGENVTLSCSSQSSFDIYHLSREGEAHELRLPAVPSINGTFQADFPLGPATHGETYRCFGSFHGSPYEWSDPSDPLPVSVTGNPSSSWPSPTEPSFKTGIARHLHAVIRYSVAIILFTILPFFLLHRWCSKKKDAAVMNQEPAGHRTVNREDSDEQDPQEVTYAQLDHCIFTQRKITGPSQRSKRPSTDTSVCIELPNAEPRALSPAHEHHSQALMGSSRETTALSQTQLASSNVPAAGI

VP7 of rotavirus strain 116E (G9P[11]) (human rotavirus), Q99706, sequence (Q99706 22-377): as above

Binder	in vitro neutralization [1] [ng/mL]	in vitro neutralization [2] [ng/mL]
B1	> 625	–
B2	> 625	–
B3	–	> 625

From US20180155411A1
